Results from patent publication US20090175872A1, “Treatment of Conditions Involving Demyelination” (BIOGEN Idec MA Inc., priority 2005, published 2009).

Legend:
A2B5+ oligodendrocytes = test: Differentiation of A2B5+ oligodendrocytes treated with Sp35-Fc (O4 staining); assay type: cell-based, rat; conditions: increasing concentrations versus control-Fc, 48 h, FIG. 8
Protocol: Enriched populations of oligodendrocytes were grown from female Long Evans P2 rats as described by Conn, Meth. Neurosci. 2:1-4 (Academic Press; 1990) with modifications as follows. Briefly, the forebrain was dissected and placed in Hank's buffered salt solution (IBSS; Invitrogen). The tissue was cut into 1-mm fragments and was incubated at 37° C. for 15 min in 0.01% trypsin and 10 μg/ml DNase. Dissociated cells were plated on poly-L-lysine-coated T75 tissue culture flasks and were grown at 37° C. for 10 d in DMEM medium with 20% fetal calf serum (Invitrogen). Oligodendrocyte precursors (A2B5^+) were collected by shaking the flask overnight at 200 rpm at 37° C., resulting in a 95% pure population. Cultures were maintained in high-glucose Dulbecco's modified Eagle's medium (DMEM with FGF/PDGF (10 ng/ml; Peprotech) for 1 week. Removal of FGF/PDGF allowed A2B5+ cells to differentiate into O4^+ premyelinating oligodendrocytes after 3-7 d, and to differentiate into O4^+ and MBP^+ mature oligodendrocytes after 7-10 d. These differentiation states are readily apparent from changes in morphology: AB5^+ cells are bipolar in shape, O4^+ premyelinating oligodendrocytes have longer and more branched processes and MBP^+ mature oligodendrocytes contain myelin sheet structures between processes. […]

[1] = test system: co-cultures of dorsal root ganglion (DRG) neurons and oligodendrocytes; test: Myelination in co-cultures of DRG neurons and oligodendrocytes; assay type: cell-based, rat
Protocol: The role of Sp35 in myelination was examined in vitro by treating co-cultures of dorsal root ganglion (DRG) neurons and oligodendrocytes with Sp35-Fc and testing for myelination by immunohistochemistry and electron microscopy. For these studies, it was necessary to first generate primary cultures of DRG neurons and of oligodendrocytes.
Female Long Evans rat E14-E17 embryonic dorsal root ganglia were cultured as described by Plant et al., J. Neurosci. 22:6083-91 (2002). Dissected DRGs were plated on poly-L-lysine-coated cover slips (100 μg/ml) for 2 weeks in the presence of fluorodeoxyuridine for days 2-6 and days 8-11 in NLA medium containing 1×B27, 100 ng/ml NGF (Invitrogen).
A2B5^+ oligodendrocytes were prepared as described in Example 1, and were harvested by trypsinization.
For coculture studies, A2B5^+ oligodendrocytes were added to DRG neuron drop cultures in the presence or absence of 10 μg/ml Sp35-Fc. The culture medium (Neurobasal medium supplemented with B27 and 100 ng/ml NGF) was changed, and fresh Sp35-Fc was added to the cells every 3 d. To identify changes in myelination, 2-week-old cultures were stained by immunohistochemical staining (“IHC”) for neurofilaments with anti-βIII-tubulin antibody to identify axons, or anti-MBP antibody to identify oligodendrocytes., and 4-week-old cultures were subjected to SDS-PAGE followed by western blot analyses to quantify the MBP. In selected examples, cells were fixed for electron microscopy studies by adding 2.5% gluteraldehyde directly onto the cover slips. Myelinated axons in the 2-week-old cultures were quantified by counting the number of myelinated internode bundles that were derived from single MBP^+ oligodendrocytes. Samples were analyzed in duplicate. Error bars denote individual determinations. P values in all studies were determined using a one-way analysis of variance. […]
We performed experiments to address the relative contributions to the myelination process of Sp35 in DRG neurons as compared to oligodendrocytes. We infected DRG neurons, oligodendrocytes and co-cultures (prepared as described in Example 5) with the FL-Sp35 and DN-Sp35 lentiviral vectors described in Example 1 and performed immunohistochemical straining for myelinated MBP^+ cells after two weeks. A 2-fold increase in MBP levels in co-cultures where both cells express DN-Sp35 and a 2-fold decrease in MBP levels in co-cultures where both cells express FL-Sp35 was observed (FIG. 10G).

cuprizone-treated mice = test: Cuprizone demyelination model, stereotactic injection into corpus callosum; assay type: in vivo; conditions: injected at 2, 2.5 and 3 weeks of cuprizone feeding
Source text: Adult wild-type C57B1/6 male mice were fed cuprizone (0.2% milled with ground mouse chow by weight) for 6 weeks to induce demyelination within the corpus callosum. Sp35-Fc was stereotactically injected into the demyelinating corpus callosum at 2, 2.5, and 3 weeks of cuprizone feeding. Control mice were stereotactically injected at the same intervals with sterilized media containing no Sp35-Fc. After 6 weeks of cuprizone feeding, the mice were returned to a normal diet for 2, 4 and 6 weeks (ground mouse chow only) to allow remyelination.
The cuprizone-treated mice were anesthetized with ketamine (80 mg/kg body weight) and xylazine (10 mg/kg body weight) and positioned in an immobilization apparatus designed for stereotactic surgery (David Kopf Instruments). The scalp was opened and the sterile compounds injected (1 μM in […] of HBSS) unilaterally into the acutely demyelinated corpus callosum of the wild-type recipient mice with a […] Hamilton syringe using stereotactic coordinates of 0.7 mm posterior and 0.3 mm lateral to bregrna at a depth of 1.7 mm (Messier et al., Pharmacol. Biochem. Behav. 63(2): 313-18 (1999)). Additionally, control recipient mice were stereotactically injected with HBSS containing no compounds. The opening in the skull was filled with Gelfoam, and the area was swabbed with penicillin and streptomycin (Gibco) and the wound was sutured. […]

Caspase-3 = Caspase-3 activation in differentiated PC12 cells after NGF withdrawal (Caspase 3/7 Glo); assay type: cell-based; conditions: 18 hours after removal of NGF
Protocol: PC 12 cells (Neuroscreen) were differentiated in RPMI-1640 medium supplemented with 5% fetal bovine serum, 10% horse serum, 2 mM glutamine, 100 U/ml penicillin and […] streptomycin containing 200 ng/ml NGF for 7 days. For experiments, the culture media was replaced with NGF-free culture media containing Sp35-Fc, human IgG as a negative control (0.1-10 μM), or zVAD as a positive control (0.1 μM). 18 hours after NGF withdrawal, activated Caspase-3 was quantified using the Caspase 3/7 Glo kit (Promega) according to the manufacturer's instructions. 42 hours after NGF withdrawal, apoptotic cell death was quantified using a cell death detection ELISA kit (Roche) according to the manufacturer's instructions.

B1: Sp35-Fc: extra-cellular portion of human Sp35 (residues 1-532) fused to the hinge and Fc region of human IgG1 (protein)
chain: TGCPPRCECSAQDRAVLCHRKRFVAVPEGIPTETRLLDLGKNRIKTLNQDEFASFPHLEELELNENIVSAVEPGAFNNLFNLRTLGLRSNRLKLIPLGVFTGLSNLTKLDISENKIVILLDYMFQDLYNLKSLEVGDNDLVYISHRAFSGLNSLEQLTLEKCNLTSIPTEALSHLHGLIVLRLRHLNINAIRDYSFKRLYRLKVLEISHWPYLDTMTPNCLYGLNLTSLSITHCNLTAVPYLAVRHLVYLRFLNLSYNPISTIEGSMLHELLRLQEIQLVGGQLAVVEPYAFRGLNYLRVLNVSGNQLTTLEESVFHSVGNLETLILDSNPLACDCRLLWVFRRRWRLNFNRQQPTCATPEFVQGKEFKDFPDVLLPNYFTCRRARIRDRKAQQVFVDEGHTVQFVCRADGDPPPAILWLSPRKHLVSAKSNGRLTVFPDGTLEVRYAQVQDNGTYLCIAANAGGNDSMPAHLHVRSYSPDWPHQPNKTFAFISNQPGE
modifications: left off: a dimerising Fc or GST
notes: extra-cellular portion of human Sp35 (residues 1-532) fused to the hinge and Fc region of human IgG1
differentiation of A2B5+ cells into O4+ cells (A2B5+ oligodendrocytes): promoted differentiation | internodes and nodes of Ranvier by electron microscopy ([1]; 4-week co-cultures, FIG. 10C): Multiple wellformed internodes were observed | expression of MBP (western blot) ([1]; 4-week-old treated co-cultures, anti-MBP antibody): increased | effect on myelination when both cell types overexpress DN-Sp35 ([1]; exogenously added): slight effects | effect on myelination when either cell type overexpresses DN-Sp35 alone ([1]; exogenously added): further enhanced myelination | effect on inhibition of myelination by overexpression of FL-Sp35 ([1]; exogenously added, FL-Sp35 in either or both cell types): reversed the inhibition of myelination | axonal myelination (MBP+ myelinated axons) ([1]; treatment for 2 weeks, dose-dependent, FIG. 10A): robust axonal myelination | axon myelination by IHC using anti-MBP protein antibody or luxol fast blue (cuprizone-treated mice): increased | mature oligodendrocyte survival (CC1 antibody staining) (cuprizone-treated mice; FIG. 12): increased mature oligodendrocyte survival | Caspase-3 activation (Caspase-3; 0.1 μM): reduced Caspase-3 activation | Caspase-3 activation compared with zVAD (0.1 μM) (Caspase-3; 1 or 10 μM, dose-dependent, FIG. 14): as effective as a neuroprotective dose of the caspase inhibitor zVAD
